From patent US10526416B2, “Anti-HER3 antibodies and uses of same” (Yeda Research and Development Co. Ltd., priority 2014, dated 2020) come the findings set out here.

One assay has as its target T1, IgB3 (Homo sapiens, UniProt P21860).
T1 construct: To produce IgB3 (recombinant HER3 extracellular domain fused to a human IgG Fc domain); made in house
Kind of assay: Antibody competition assay with Lumi4(Tb)-labeled NG33 on IgB3-coated plates. It counts as binding. The following applies: NG33-K2 1 nM. How it is done:
FIGS. 12A-D show a combination of two mAbs directed to two different epitopes of HER3. (FIGS. 12A and 12B) The antibodies NG33 and XC252 were labeled with the fluorescent dye Lumi4® Tb Cryptate (K2). 96 well-plate were coated with IgB3 (1.5 μg/ml), blocked with PBS-BSA and incubated for 1 h with various concentrations of mAbs under gentle shaking at RT. The labeled mAb, NG33-K2 (FIG. 12A) or XC252-K2 (FIG. 12B), was then added at 1 nM final concentration. After ah incubation, the plate was washed 4 times with KREBS buffer, and the fluorescence intensity at 610 nm was measured using a fluorescence microplate reader. (FIG. 12C) The various anti-HER3 mAb combinations were studied for their ability to trigger HER3 degradation using N87 cells. Cells were treated for 2 h at 37° C. with mAb (10 μg/ml). After cell lysis and protein extraction, the samples were subjected to immunoblotting with the indicated antibodies. (FIG. 12D) The combination's capacity to modulate NRG-induced phosphorylation of HER3, AKT and ERK was evaluated using N87 cells. After 20 min treatment at 37° C. with 10 μg/ml of mAbs, NRG (20 ng/ml) was added to the cells for 10 min. The cells were then lysed, and equal quantities of lysate protein were electrophoresed before immunoblotting, as indicated.
Agent labeling was performed by Cisbio. […] Following 1 h incubation, the plate was washed 4 times with KREBS buffer (146 mM NaCl, 4 mM KCl, 0.5 mM MgCl2, 1 mM CaCl2, 10 mM Hepes, 1 gr/L glucose, and 1 mg/mL albumin), and the fluorescent intensity (excitation: 488 nm, emission: 610 nm) was measured using a fluorescence microplate reader. […] Finally, following two washes with KREBS buffer, the fluorescence intensity was measured at 670 nm (excitation: 620 nm).
Combinations of antibodies directed against two different epitopes of the same receptor, as has been previously shown, can improve the effect of treatment with a single mAb (28, 29). […] First, it was determined which antibody from the anti-HER3 series targets an epitope distinct from that targeted by NG33. […]

In assay [1] the test system is phosphorylation of HER3, AKT and ERK. Kind of assay: NRG-induced phosphorylation of HER3, AKT and ERK in N87 cells (immunoblotting). The class given is cell-based, human. The following applies: mAb 10 μg/ml 20 min, then NRG 20 ng/ml. The protocol: (FIG. 9A) The indicated mAbs were checked for their capacity to compete with fluorescent dye labeled NRG. […] After washes, the labeled-NRG was added and incubated for 30 min at 4° C. Fluorescence intensity at 670 nm was determined following 3 final washes. (FIG. 9B) The ability of the mAbs to avoid NRG-induced phosphorylation of HER3, AKT and ERK, was studied with N87 cells. After 20 min treatment with the indicated mAbs (10 μg/ml) at 37° C., NRG (20 ng/ml) was added to the cells for 10 min. The cells were then lysed, and equal quantities of protein lysates were run on 9% bisacrylamide gel before immunoblotting with the indicated primary antibodies. (FIG. 9C) The capacity of mAb NG33 to avoid NRG-induced migration was checked with OVCAR-5 cells and the quantification reported in a histogram. […] Signals of triplicates were quantified. **** […] (ANOVA and post hoc tests).
FIGS. 12A-D show a combination of two mAbs directed to two different epitopes of HER3. […] After ah incubation, the plate was washed 4 times with KREBS buffer, and the fluorescence intensity at 610 nm was measured using a fluorescence microplate reader. […] (FIG. 12D) The combination's capacity to modulate NRG-induced phosphorylation of HER3, AKT and ERK was evaluated using N87 cells. […] The cells were then lysed, and equal quantities of lysate protein were electrophoresed before immunoblotting, as indicated. […]

T1 sequence (P21860 20-643 limits assumed): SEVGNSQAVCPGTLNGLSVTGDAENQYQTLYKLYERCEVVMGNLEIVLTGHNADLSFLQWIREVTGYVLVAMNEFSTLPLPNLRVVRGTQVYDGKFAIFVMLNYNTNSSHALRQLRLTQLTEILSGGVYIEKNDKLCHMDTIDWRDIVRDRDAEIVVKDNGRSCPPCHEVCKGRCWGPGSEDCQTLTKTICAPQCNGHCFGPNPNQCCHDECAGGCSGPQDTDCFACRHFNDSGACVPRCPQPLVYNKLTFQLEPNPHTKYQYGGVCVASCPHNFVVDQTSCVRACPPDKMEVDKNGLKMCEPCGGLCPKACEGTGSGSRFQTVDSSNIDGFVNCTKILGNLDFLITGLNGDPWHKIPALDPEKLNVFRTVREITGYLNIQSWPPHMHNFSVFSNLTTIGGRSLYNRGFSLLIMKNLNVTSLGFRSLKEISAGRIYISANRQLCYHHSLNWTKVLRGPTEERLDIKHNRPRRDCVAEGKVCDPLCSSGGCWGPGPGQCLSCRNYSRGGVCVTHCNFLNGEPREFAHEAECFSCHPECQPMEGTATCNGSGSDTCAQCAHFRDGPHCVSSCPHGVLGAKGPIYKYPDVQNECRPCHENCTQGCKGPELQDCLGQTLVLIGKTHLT
T1 sequence (P01857 99-330 partner limits assumed): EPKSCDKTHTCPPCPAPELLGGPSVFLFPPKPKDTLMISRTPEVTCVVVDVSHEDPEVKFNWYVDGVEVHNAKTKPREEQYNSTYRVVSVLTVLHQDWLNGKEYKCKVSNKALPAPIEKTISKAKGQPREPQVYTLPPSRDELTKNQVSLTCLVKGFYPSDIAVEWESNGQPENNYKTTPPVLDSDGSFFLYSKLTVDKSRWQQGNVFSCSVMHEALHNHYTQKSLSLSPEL

B1: XC252: anti-HER3 mAb generated as described in Chen X, et al. (1996); heavy and light chain SEQ ID NOs: 49 and 53 (antibody, V domains shown)
VH: EVQLQQSGAELVRPGVSVKISCKGSGYTFTDYAMHWVKQSHAKSLEWIGVISTYYGDPRDNQKFKGKATMTVDKSSSTAYMELARLTSEDSAIYYCARGDYDWYAIDYWGQGTSVTVSS
VL: DVVMTQTPLSLPVSLGDQASISCRSSQSIVHSDGNTYLEWYLQKPGQSPKLLIYKVSNRFSGVPDRFSGSGSGTDFTLKISRVEAEDLGVYYCFQGSHVPPTFGGGTKLEIK
modifications: VH chain of XC252 polypeptide; VL chain of XC252 polypeptide
With B1, the “effect on binding of Lumi4(Tb)-labeled NG33 to IgB3” value in the assay with IgB3 is reported as “did not alter NG33 binding”. In assay [1], the “effect on NRG-induced HER3 phosphorylation and AKT and ERK activation” value is on record as “partly decrease the phosphorylation level of HER3”.

B2: NG83: anti-HER3 mAb; light chain CDRs SEQ ID NOs: 7-9, heavy chain CDRs 10-12 (antibody, V domains shown)
VH: QIQLVQSGPELKKRGETVKISCKASGYTFTNYGMNWVRQAPGKGLKCMGWINTYAGEPTYADDFKGRFAFSLDSSASTAYLQINNLKNEDMATYFCARGGITGAMDYWGQGTSVTVSS
VL: DVVMTQKTSSLSTSLGDRVTISCRASQDIRNYLNWYQQKPDGTVKLLIYYTSRLHSGVPSRFSGSGSGTDYSLTISDLEQEDIATYFCQQGNTLPWTFGGGTKLAIK
modifications: VH chain of NG83 polypeptide; VL chain of NG83 polypeptide
For the molecule B2, the “effect on binding of Lumi4(Tb)-labeled NG33 to IgB3” value in the assay with IgB3 is recorded as “potentiated NG33 binding to IgB3”.
